Assay results published in US20240239878A1 (SHANGHAI QILU PHARMACEUTICAL RESEARCH AND DEVELOPMENT CENTRE, published 2024).
Numbering of substitutions follows the chain as printed. One block for each binder: values may come before it.

Columns and labels:
[1] = target: T1, Cynomolgus monkey DLL3 antigen protein (Kactus Biosystems, Cat. No. CM103) (Cynomolgus monkey, UniProt Q9NYJ7 27-490 (human entry)); test: ELISA, antigen coated at 2 ug/ml, induced supernatant, anti-Myc HRP
T1 construct: also called cyno DLL3
T1 chain: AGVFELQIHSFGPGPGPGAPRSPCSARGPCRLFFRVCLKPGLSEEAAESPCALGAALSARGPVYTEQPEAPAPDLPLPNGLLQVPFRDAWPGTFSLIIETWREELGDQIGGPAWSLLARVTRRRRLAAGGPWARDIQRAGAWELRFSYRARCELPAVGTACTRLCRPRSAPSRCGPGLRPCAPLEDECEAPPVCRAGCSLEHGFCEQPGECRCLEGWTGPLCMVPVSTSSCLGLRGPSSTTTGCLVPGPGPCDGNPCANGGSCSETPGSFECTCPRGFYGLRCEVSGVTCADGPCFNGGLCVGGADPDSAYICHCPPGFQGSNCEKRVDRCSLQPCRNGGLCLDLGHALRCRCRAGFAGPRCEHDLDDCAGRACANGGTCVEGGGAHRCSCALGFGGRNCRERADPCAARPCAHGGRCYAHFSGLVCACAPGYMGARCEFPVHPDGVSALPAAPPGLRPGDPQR
Protocol: (§1) In order to obtain a positive antibody that can cross-bind to human DLL3 and Cynomolgus monkey DLL3, the above library was amplified and added to the M13K07 helper phage to assemble phage. 1×10¹² pfu camel immune library phage was added and incubated with biotinylated human DLL3 proteins (8 μg/mL) bound to magnetic beads for 1 h at room temperature. After washing with 0.05% PBST to remove unbound phage, the phage specifically bound to DLL3 was eluted with 100 mM triethylamine. After gradient dilution, log-phase growth of E. coli SS320 was infected and spread on an ampicillin plate overnight at 37° C. A single clone was picked for IPTG-induced expression and the supernatant was used for ELISA detection. The ELISA plate was coated with 2 μg/ml human DLL3 or Cynomolgus monkey DLL3 antigen respectively overnight at 4° C. The plate was washed with 0.05% PBST 3 times, then blocked with 5% skimmed milk for 1 h at room temperature, and washed with 0.05% PBST 3 times. Then 30 μL of induced supernatant was added to each well, and a culture medium was added to a negative control well. The plate was incubated for 1 h at room temperature. Finally, anti-Myc HRP detection was performed (VHH expressed by IPTG induction has his and c-Myc labels). The amino acid sequences of the five heavy chain antibody variable regions of the present disclosure were obtained by sequencing clones from the ELISA assay that bound human and Cynomolgus monkey DLL3 with OD450 values greater than 1.0 and ELISA OD450 ratios greater than 3 to the medium as negative control, with the results shown in Table 1: […]

[2] = target: T2, human DLL3 antigen protein (Kactus Biosystems, Cat. No. DLL-HM103) (human, UniProt Q9NYJ7 27-492); test: as above
T2 sequence: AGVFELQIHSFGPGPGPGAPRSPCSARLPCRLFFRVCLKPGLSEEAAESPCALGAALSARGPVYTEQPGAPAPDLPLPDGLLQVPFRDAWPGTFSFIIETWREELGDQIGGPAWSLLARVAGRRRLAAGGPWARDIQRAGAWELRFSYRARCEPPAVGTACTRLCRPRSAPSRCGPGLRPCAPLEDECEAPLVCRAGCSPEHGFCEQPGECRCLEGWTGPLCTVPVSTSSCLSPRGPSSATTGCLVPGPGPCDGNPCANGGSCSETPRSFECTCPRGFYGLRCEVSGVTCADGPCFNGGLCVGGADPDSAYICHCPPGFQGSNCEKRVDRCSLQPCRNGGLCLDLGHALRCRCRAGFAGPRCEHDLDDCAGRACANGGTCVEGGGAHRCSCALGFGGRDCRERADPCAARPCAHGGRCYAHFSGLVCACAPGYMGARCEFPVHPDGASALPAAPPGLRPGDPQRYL
Protocol: as §1

[3] = target: T2, human DLL3 antigen protein (Kactus …); test: affinity assay with human DLL3 antigen protein (kinetics; method not restated, Biacore as in Example 18 implied)
[4] = target: T1, Cynomolgus monkey DLL3 antigen protein …; test: affinity assay with Cynomolgus monkey DLL3 antigen protein (kinetics; method not restated, Biacore as in Example 18 implied)

ELISA OD450 ratio to the medium negative control [1]: > 3 fold
OD450 [1]: > 1 OD450
ELISA OD450 ratio to the medium negative control [2]: > 3 fold
OD450 [2]: > 1 OD450
B1: DLL3-3 VHH (IPTG-induced supernatant, with his and c-Myc labels) (VHH)
VHH: DVQLVESGGGSVQAGGSLKLSCKSPTYTISSGYMGWFRQAPGKEREGVAAIYIGGSTTLYADSVKGRFTISADNAEKTVYLQMNTLKPEDSAMYYCAAQLRPNSAYHPLDGRKYNYWGQGTQVTVSS
notes: not shown: his and c-Myc labels

ELISA OD450 ratio to the medium negative control [1]: > 3 fold
OD450 [1]: > 1 OD450
ELISA OD450 ratio to the medium negative control [2]: > 3 fold
OD450 [2]: > 1 OD450
B2: DLL3-12 VHH (IPTG-induced supernatant, with his and c-Myc labels) (VHH)
VHH: QVQLVESGGGLVQPGESLRLSCAGSGFAFSSYDMHWVRQAPGKDFEWVSSISRDGRGPRYADFVKGRFTISKDNGRNMLYLQLNSLEIEDTAMYYCSKGYPIMGGTTQGTQVTVSS
notes: as for B1

ELISA OD450 ratio to the medium negative control [1]: > 3 fold
OD450 [1]: > 1 OD450
ELISA OD450 ratio to the medium negative control [2]: > 3 fold
OD450 [2]: > 1 OD450
B3: DLL3-26 VHH (IPTG-induced supernatant, with his and c-Myc labels) (VHH)
VHH: QVQLVESGGGSVQAGGSLRLSCAASGDIYSSSYVGWFRQAPGKEREGVAIIYTSGDSTYYANSVKGRFTISQDKAKKTLYLQMNSLKPEDTAMYYCAARFAIDNSNYWGQGTQVTVSS
notes: as for B1

ELISA OD450 ratio to the medium negative control [1]: > 3 fold
OD450 [1]: > 1 OD450
ELISA OD450 ratio to the medium negative control [2]: > 3 fold
OD450 [2]: > 1 OD450
B4: DLL3-276 VHH (IPTG-induced supernatant, with his and c-Myc labels) (VHH)
VHH: QVQLVESGGGSVQAGGSLNLSCATSGSTASTTYMGWFRQAPGKGREGVAIIYTARDNPWYANSVKGRFIISQDNAKKTLYLQMNTLKPEDTATYYCAATLANPTRTAWGQGTLVTVSS
notes: as for B1

ELISA OD450 ratio to the medium negative control [1]: > 3 fold
OD450 [1]: > 1 OD450
ELISA OD450 ratio to the medium negative control [2]: > 3 fold
OD450 [2]: > 1 OD450
B5: DLL3-122 VHH (IPTG-induced supernatant, with his and c-Myc labels) (VHH)
VHH: QVQLVESGGGSVQAGGSLRLSCTASGDTYRSYCMGWFRKAPGKEREGVADIVSDGSTSYADSVKGRFTISKDNAKNTLYLQMNSLKPEDTAMYYCAVDRGGSGGYCYTGRYDYWGQGTQVTVSS
notes: as for B1

Kd [3]: 1.76 nM
koff [3]: 0.000362 s⁻¹
kon [3]: 206000 M⁻¹ s⁻¹
Kd [4]: 1.63 nM
koff [4]: 0.000427 s⁻¹
kon [4]: 262000 M⁻¹ s⁻¹
B6: H2-39E2D11-AS humanized antibody variant (antibody, V domains shown)
VH: QVQLVQSGAEVKKPGASVKVSCKASGYTFISYWITWVRQAPGQGLEWMGDIYPGSGSTTNYNEKFKSRVTMTRDTSTSTVYMELSSLRSEDTAVYYCARETTVGGAYAMDYWGQGTLVTVSS
VL: EIVLTQSPATLSLSPGERATLSCRASQSINNNLHWYQQKPGQAPRLLIKYVSQSISGIPARFSGSGSGTDFTLTISSLEPEDFAVYYCQQTASWPLTFGGGTKLEIK
notes: Variant of H2-39E2D11; Its constant regions are not restated

Kd [3]: 0.229 nM
koff [3]: 3.91e-05 s⁻¹
kon [3]: 171000 M⁻¹ s⁻¹
Kd [4]: 0.434 nM
koff [4]: 8.59e-05 s⁻¹
kon [4]: 198000 M⁻¹ s⁻¹
B7: H2-39E2D11-QS humanized antibody variant (antibody, V domains shown)
VH: B6 VH
VL: B6 VL with A92Q
notes: as for B6

Kd [3]: 0.484 nM
koff [3]: 0.00012 s⁻¹
kon [3]: 247000 M⁻¹ s⁻¹
Kd [4]: 0.346 nM
koff [4]: 8.09e-05 s⁻¹
kon [4]: 233000 M⁻¹ s⁻¹
B8: H2-39E2D11-NA humanized antibody variant (antibody, V domains shown)
VH: B6 VH
VL: B6 VL with A92N, S93A
notes: as for B6
